Results: the supplement of paper PMC11780869

Test system: Bacillus subtilis
Experiment: cleaved RNA product abundance (RNA/gDNA barcode ratio) relative to median wild-type variant (ratio to wild type); higher = more accumulation of the downstream cleavage product
Conditions: cleavage site: cggR-gapA (positions -7 to +36 mutated)
Description: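 MPRA in B. subtilis. Mutagenized RNase Y cleavage-site regions (9% mutation rate) were inserted into a barcoded reporter mRNA (truncated aprE or tetM). Cells were grown in LB at 37°C to OD600 0.3. The cleaved RNA isoform was gel-purified and its barcodes counted; the RNA:gDNA barcode ratio was normalised to the median wild-type variant, and the median over barcodes is reported per variant. The printed sequence is the variable window only; the reporter flanks are not printed.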

[1] = experiment (reporter, strain, medium): exp 2b: truncated aprE reporter, strain BJT200
[2] = experiment (reporter, strain, medium): exp 4a: truncated aprE reporter, strain BJT201 with 2% xylose (RNase J1 expressed)
[3] = experiment (reporter, strain, medium): exp 6: tetM reporter, strain 168

Row | Sequence | cleaved RNA product abundance [1] | cleaved RNA product abundance [2] | cleaved RNA product abundance [3]
1 | ACAGACGAAGGAGCCGCAAAAAAGTTATTAAGGGATGAATAATCCCTCAAAATAAATATCTCTCACTTATTTAAA | 0.349 | 0.376 | 
2 | ACAGACGAAGGAGCCGCAAAAAAGTTATTAAGGGATGAATAATCCCTCAACATAAATATCTCTCACTTATTTAAA | 0.239 | 0.272 | 
3 | ACAGACGAAGGAGCCGCAAAAAAGTTATTAAGGGATGAATAATCCCTCAAGATAAATATCTCTCACTTATTTAAA | 0.251 |  | 
4 | ACAGACGAAGGAGCCGCAAAAAAGTTATTAAGGGATGAATAATCCCTCAATACAAATATCTCTCACTTATTTAAA |  | 0.0755 | 
5 | ACAGACGAAGGAGCCGCAAAAAAGTTATTAAGGGATGAATAATCCCTCAATATAAAAATCTCTCACTTATTTAAA | 1.08 | 0.82 | 
6 | ACAGACGAAGGAGCCGCAAAAAAGTTATTAAGGGATGAATAATCCCTCAATATAAACATCTCTCACTTATTTAAA |  | 0.766 | 
7 | ACAGACGAAGGAGCCGCAAAAAAGTTATTAAGGGATGAATAATCCCTCAATATAAAGATCTCTCACTTATTTAAA |  | 0.56 | 
8 | ACAGACGAAGGAGCCGCAAAAAAGTTATTAAGGGATGAATAATCCCTCAATATAAATAACTCTCACTTATTTAAA |  | 1.13 | 
9 | ACAGACGAAGGAGCCGCAAAAAAGTTATTAAGGGATGAATAATCCCTCAATATAAATACCTCTCACTTATTTAAA |  | 0.493 | 
10 | ACAGACGAAGGAGCCGCAAAAAAGTTATTAAGGGATGAATAATCCCTCAATATAAATATCTCTCACTTATTTAAA | 1.06 | 1.04 | 1.04
11 | ACAGACGAAGGAGCCGCAAAAAAGTTATTAAGGGATGAATAATCCCTCAATATAAATCTCTCTCACTTATTTAAA |  | 0.362 | 
12 | ACAGACGAAGGAGCCGCAAAAAAGTTATTAAGGGATGAATAATCCCTCAATATAAATGTCTCTCACTTATTTAAA | 0.243 | 0.309 | 
13 | ACAGACGAAGGAGCCGCAAAAAAGTTATTAAGGGATGAATAATCCCTCAATATAAATTTCTCTCACTTATTTAAA |  | 1.04 | 
14 | ACAGACGAAGGAGCCGCAAAAAAGTTATTAAGGGATGAATAATCCCTCAATATACATATCTCTCACTTATTTAAA |  | 0.996 | 
15 | ACAGACGAAGGAGCCGCAAAAAAGTTATTAAGGGATGAATAATCCCTCAATATAGATATCTCTCACTTATTTAAA | 0.991 | 0.644 | 
16 | ACAGACGAAGGAGCCGCAAAAAAGTTATTAAGGGATGAATAATCCCTCAATATATATATCTCTCACTTATTTAAA |  | 1.08 | 
17 | ACAGACGAAGGAGCCGCAAAAAAGTTATTAAGGGATGAATAATCCCTCAATATGAATATCTCTCACTTATTTAAA | 0.135 |  | 
18 | ACAGACGAAGGAGCCGCAAAAAAGTTATTAAGGGATGAATAATCCCTCAATCTAAATATCTCTCACTTATTTAAA | 0.137 |  | 
19 | ACAGACGAAGGAGCCGCAAAAAAGTTATTAAGGGATGAATAATCCCTCACTATAAATATCTCTCACTTATTTAAA |  | 0.537 | 

Row | Sequence | cleaved RNA product abundance [1] | cleaved RNA product abundance [2] | cleaved RNA product abundance [3]
20 | ACAGACGAAGGAGCCGCAAAAAAGTTATTAAGGGATGAATAATCCCTCAGTATAAATATCTCTCACTTATTTAAA | 0.266 | 0.42 | 
21 | ACAGACGAAGGAGCCGCAAAAAAGTTATTAAGGGATGAATAATCCCTCATTATAAATATCTCTCACTTATTTAAA | 0.293 | 0.417 | 
22 | ACAGACGAAGGAGCCGCAAAAAAGTTATTAAGGGATGAATAATCCCTCCATATAAATATCTCTCACTTATTTAAA |  | 0.348 | 
23 | ACAGACGAAGGAGCCGCAAAAAAGTTATTAAGGGATGAATAATCCCTCGATATAAATATCTCTCACTTATTTAAA | 0.396 | 0.555 | 
24 | ACAGACGAAGGAGCCGCAAAAAAGTTATTAAGGGATGAATAATCCCTCTATATAAATATCTCTCACTTATTTAAA |  | 0.613 | 
25 | ACAGACGAAGGAGCCGCAAAAAAGTTATTAAGGGATGAATAATCCCTGAATATAAAGATCTCTCACTTATTTAAA | 0.364 |  | 
26 | ACAGACGAAGGAGCCGCAAAAAAGTTATTAAGGGATGAATAATCCCTGAATATAAATATCTCTCACTTATTTAAA |  | 0.427 | 
27 | ACAGACGAAGGAGCCGCAAAAAAGTTATTAAGGGATGAATAATCCCTTAATATAAATATCTCTCACTTATTTAAA |  | 0.394 | 
28 | ACAGACGAAGGAGCCGCAAAAAAGTTATTAAGGGATGAATAATCCGTCAATATAAATATCTCTCACTTATTTAAA | 0.168 | 0.242 | 
29 | ACAGACGAAGGAGCCGCAAAAAAGTTATTAAGGGATGAATAATCCTTCAATATAAATATCTCTCACTTATTTAAA | 0.395 | 0.678 | 
30 | ACAGACGAAGGAGCCGCAAAAAAGTTATTAAGGGATGAATAATCTCTCAATATAAATATCTCTCACTTATTTAAA | 0.703 | 0.694 | 0.897
31 | ACAGACGAAGGAGCCGCAAAAAAGTTATTAAGGGATGAATAATTCCTCAATATAAATATCTCTCACTTATTTAAA | 0.68 | 0.814 | 
32 | ACAGACGAAGGAGCCGCAAAAAAGTTATTAAGGGATGAATAATTCCTCTATATAAATATCTCTCACTTATTTAAA |  | 0.264 | 
33 | ACAGACGAAGGAGCCGCAAAAAAGTTATTAAGGGATGAATACTCCCTCAATATAAATATCTCTCACTTATTTAAA | 0.519 | 0.58 | 
34 | ACAGACGAAGGAGCCGCAAAAAAGTTATTAAGGGATGAATAGTCCCTCAATATAAATATCTCTCACTTATTTAAA | 0.786 | 0.961 | 
35 | ACAGACGAAGGAGCCGCAAAAAAGTTATTAAGGGATGAATATTCCCTCAATATAAATATCTCTCACTTATTTAAA | 0.665 | 0.566 | 
36 | ACAGACGAAGGAGCCGCAAAAAAGTTATTAAGGGATGAATCATCCCTCAATATAAATATCTCTCACTTATTTAAA |  | 1.01 | 
37 | ACAGACGAAGGAGCCGCAAAAAAGTTATTAAGGGATGAATTATCCCTCAATATAAATATCTCTCACTTATTTAAA |  | 0.808 | 
38 | ACAGACGAAGGAGCCGCAAAAAAGTTATTAAGGGATGACTAATCCCTCAATATAAATATCTCTCACTTATTTAAA | 0.504 | 0.61 | 

Row | Sequence | cleaved RNA product abundance [1] | cleaved RNA product abundance [2] | cleaved RNA product abundance [3]
39 | ACAGACGAAGGAGCCGCAAAAAAGTTATTAAGGGATGAGTAATCCCTCAATATAAATATCTCTCACTTATTTAAA | 0.481 | 0.415 | 
40 | ACAGACGAAGGAGCCGCAAAAAAGTTATTAAGGGATGCATAATCCCTCAATATAAATATCTCTCACTTATTTAAA | 0.986 | 1.02 | 
41 | ACAGACGAAGGAGCCGCAAAAAAGTTATTAAGGGATGTATAATCCCTCAATATAAATATCTCTCACTTATTTAAA | 1.06 | 1.09 | 
42 | ACAGACGAAGGAGCCGCAAAAAAGTTATTAAGGGATTAATAATCCCTCAATATAAATATCTCTCACTTATTTAAA | 1.51 | 0.881 | 
43 | ACAGACGAAGGAGCCGCAAAAAAGTTATTAAGGGCTGAATAATCCCTCAATATAAATATCTCTCACTTATTTAAA | 0.478 | 0.694 | 
44 | ACAGACGAAGGAGCCGCAAAAAAGTTATTAAGGGGTGAATAATCCCTCAATATAAATATCTCTCACTTATTTAAA | 0.759 | 0.602 | 
45 | ACAGACGAAGGAGCCGCAAAAAAGTTATTAAGGGTTGAATAATCCCTCAATATAAATATCTCTCACTTATTTAAA | 0.373 | 0.512 | 
46 | ACAGACGAAGGAGCCGCAAAAAAGTTATTAAGGTATAAATAATCCCTCAATATAAATATCTCTCACTTATTTAAA |  | 0.0805 | 
47 | ACAGACGAAGGAGCCGCAAAAAAGTTATTAAGGTATGAATAATCCATCAATATAAATATCTCTCACTTATTTAAA |  | 0.23 | 
48 | ACAGACGAAGGAGCCGCAAAAAAGTTATTAAGGTATGAATAATCCCTCAATATAAATATCTCTCACTTATTTAAA | 0.121 | 0.17 | 
49 | ACAGACGAAGGAGCCGCAAAAAAGTTATTAAGTGATGAATAATCCCTCAATATAAATATCTCTCACTTATTTAAA | 0.119 | 0.0972 | 
50 | ACAGACGAAGGAGCCGCAAAAAAGTTATTAATGGATGAATAATCCCTCAATATAAATATCTCTCACTTATTTAAA | 0.0715 | 0.149 | 
51 | ACAGACGAAGGAGCCGCAAAAAAGTTATTAATGGCTGAATAATCCCTCAATATAAATATCTCTCACTTATTTAAA |  | 0.0935 | 
52 | ACAGACGAAGGAGCCGCAAAAAAGTTATTACGGGATGAATAATCCCTCAATATAAATATCTCTCACTTATTTAAA | 0.329 | 0.364 | 
53 | ACAGACGAAGGAGCCGCAAAAAAGTTATTAGGGGATGAATAATCCCTCAATATAAATATCTCTCACTTATTTAAA |  | 0.608 | 
54 | ACAGACGAAGGAGCCGCAAAAAAGTTATTATGGGATGAATAATCCCTCAATATAAATATCTCTCACTTATTTAAA | 0.323 | 0.334 | 
55 | ACAGACGAAGGAGCCGCAAAAAAGTTATTCAGGGATGAATAATCCCTCAATATAAATATCTCTCACTTATTTAAA |  | 0.962 | 
56 | ACAGACGAAGGAGCCGCAAAAAAGTTATTTAGGGATGAATAATCCCTCAATATAAATATCTCTCACTTATTTAAA |  | 0.552 | 
